# Source: article PMC4384732 (The Journal of Cell Biology, 2015)
# B1: CCM3 (purified, polyhistidine tag removed by TEV protease) (natural protein)
# chain: not shown
# B2: N-terminally 6×His-tagged full-length CCM3 (natural protein)
# chain: not shown
# B3: GST-CCM2^PTB-LongLinker (residues 51–251) (domain or fragment, human, UniProt Q9BSQ5 51-251, looked up)
# chain: ERVEPDRLLSDYIEKEVKYLGQLTSIPGYLNPSSRTEILHFIDNAKRAHQLPGHLTQEHDAVLSLSAYNVKLAWRDGEDIILRVPIHDIAAVSYVRDDAAHLVVLKTAQDPGISPSQSLCAESSRGLSAGSLSESAVGPVEACCLVILAAESKVAAEELCCLLGQVFQVVYTESTIDFLDRAIFDGASTPTHHLSLHSDDS
# B4: GST-CCM2^PTB-ShortLinker (residues 51–238) (domain or fragment, human, UniProt Q9BSQ5 51-238, looked up)
# chain: ERVEPDRLLSDYIEKEVKYLGQLTSIPGYLNPSSRTEILHFIDNAKRAHQLPGHLTQEHDAVLSLSAYNVKLAWRDGEDIILRVPIHDIAAVSYVRDDAAHLVVLKTAQDPGISPSQSLCAESSRGLSAGSLSESAVGPVEACCLVILAAESKVAAEELCCLLGQVFQVVYTESTIDFLDRAIFDGAS
# Assays:
# crystal structure = target: the molecule itself; experiment: crystal structure
# [1] = target: GST-CCM2^FL (residues 1–438) (human, UniProt Q9BSQ5 1-438); experiment: pull-down
# Sequence of GST-CCM2^FL (residues 1–438) (Q9BSQ5 1-438): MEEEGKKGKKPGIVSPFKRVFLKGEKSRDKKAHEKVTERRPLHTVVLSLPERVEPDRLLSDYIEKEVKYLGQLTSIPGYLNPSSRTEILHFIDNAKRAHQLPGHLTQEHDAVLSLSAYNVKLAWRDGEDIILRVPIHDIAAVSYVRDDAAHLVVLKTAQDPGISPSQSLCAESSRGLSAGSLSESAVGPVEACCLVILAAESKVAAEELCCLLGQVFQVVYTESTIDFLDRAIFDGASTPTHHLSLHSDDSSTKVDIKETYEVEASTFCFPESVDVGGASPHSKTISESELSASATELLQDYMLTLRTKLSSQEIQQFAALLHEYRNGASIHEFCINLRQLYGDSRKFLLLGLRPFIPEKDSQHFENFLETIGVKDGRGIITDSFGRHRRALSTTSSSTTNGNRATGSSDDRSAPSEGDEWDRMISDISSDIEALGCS
# [2] = target: B2; experiment: pull-down
# [3] = target: B1; experiment: BLI
# [4] = target: B2; experiment: pull-down; remark: listed apart in the source
# [5] = target: B1; experiment: crystal structure
binder,measurement,setting,value
B1,binding result,crystal structure,binds
B2,Kd,[1],8.8 ± 1.6 µM
STIDFLDRAIFDGAST [GST-CCM2-LD–like motif (residues 224–239)],Kd,[2],8.6 ± 2.2 µM
same,Kd,[3],9.5 ± 2.5 µM
B3,binding result,[4],binds
B4,binding result,[4],binds
Ac-STIDFLDRAIFDGAST-NH2 [CCM2 LD–like motif peptide (224–239)],binding result,[5],binds
